From US10457929B2
Like-named read-outs stand apart in the source and are kept apart here.

Columns and labels:
[1] = target: peptic-tryptic-pancreatinic digest of wheat gliadin
[2] = target: peptic-tryptic-pancreatinic digest of wheat gliadin; remark: listed apart in the source
[3] = target: peptic-tryptic-pancreatinic digest of wheat gliadin; remark: listed apart in the source

Row | Protection Index (%) in RLL assay [1] [%] | Substance | also measured
1 | 92 | Combination (1:1) of pig intestinal extract and crude caricain (pool or library) | –
2 | – | Fraction 4 from CM Sephadex C-50 ion exchange chromatography of papaya latex (pool or library) | Protection Index (%) in RLL assay [2]: 84%
3 | – | caricain (EC 3.4.22.30) (from UniProt P10056) (enzyme) | Protection offered against gliadin in RLL Assay [3]: 32.3%
4 | 71 | crude caricain (pool or library) | –
5 | 61 | pig intestinal enzyme extract (pool or library) | –
